Source: patent publication US20090203610A1, “METHODS OF TREATING OBESITY OR DIABETES USING NT-4/5” (RINAT NEUROSCIENCE CORPORATION, priority 2004, published 2009)

Experiments:
Assay type in all cases: in vivo
Settings in all cases: NONcNZO-10 mice, mean
[1] = tested on: NONcNZO-10 polygenic obese mice; experiment: Non-fasting blood triglyceride level in NONcNZO-10 mice (Example 4, Table 18); design: non-fasting blood triglyceride level: unit not given here
From the text: (§1) Test animals: 40 male NONcNZO-10 polygenic obese mice obtained from Jackson Laboratory at 10 weeks of age weighing in the range of 26-32 g were used in this study.
(§2) Administration of NT-4/5: NT-4/5 was produced in E. coli as descried in U.S. Pat. No. 6,184,360. The mice were divided into 6 groups of equivalent body weight and baseline blood glucose distribution (6-7 mice per group). […] A “paired-fed” control group received daily injection of vehicle, but were only fed with the same amount of food the 3 mg/kg group consumed the previous day. On the day when the treatment started (day 1), a baseline blood samples were collected for measuring glucose and triglyceride. Triglyceride level was measured on day 10. At the end of the study (day 12), a terminal blood sample was collected to determine glucose, triglyceride, electrolytes (Na, K, Cl), testoterone, corticosterone, thyroid hormone (total T4) and thyroid stimulating hormone (TSH) levels. Electrolytes, free testosterone, T4 and TSH levels of serum samples were measured by AniLytics (Gaithesburg, M.D) according to the standard protocols employed by the vendor. Other analytes were measured as described above. Body weight, food intake were monitored 5 days per week through out the entire study. Daily water intake was measured from day 5 through day 7.

[2] = tested on: NONcNZO-10 polygenic obese mice; experiment: Body weight in NONcNZO-10 mice (Example 4, Table 19); design: body weight: unit not given here
From the text: as §1, §2

[3] = tested on: NONcNZO-10 polygenic obese mice; experiment: Food intake in NONcNZO-10 mice (Example 4, Table 20); design: unit not given here
From the text: as §1, §2

B1: NT4 (protein)
chain: GVSETAPASRRGELAVCDAVSGWVTDRRTAVDLRGREVEVLGEVPAAGGSPLRQYFFETRCKADNAEEGGPGAGGGGCRGVDRRHWVSECKAKQSYVRALTADAQGRVGWRWIRIDTACVCTLLSRTGRA
Question: With B1 as the molecule, how does the “non-fasting blood triglyceride level” value ([1]; 0.1 mg/kg s.c. daily, Day 1 (baseline)) read?
Answer: 291.7

Question: What about the “non-fasting blood triglyceride level” value ([1]; 0.1 mg/kg s.c. daily, Day 10) of the same molecule?
Answer: 172.7

Question: What about the “non-fasting blood triglyceride level” value ([1]; 0.3 mg/kg s.c. daily, Day 1 (baseline)) of the same molecule?
Answer: 279.3

Question: And the “non-fasting blood triglyceride level” value ([1]; 0.3 mg/kg s.c. daily, Day 10)?
Answer: 208.0

Question: And the “non-fasting blood triglyceride level” value ([1]; 1 mg/kg s.c. daily, Day 1 (baseline))?
Answer: 307.7

Question: And the “non-fasting blood triglyceride level” value ([1]; 1 mg/kg s.c. daily, Day 10)?
Answer: 226.3

Question: What about the “non-fasting blood triglyceride level” value ([1]; 3 mg/kg s.c. daily, Day 1 (baseline)) of the same molecule?
Answer: 306.1

Question: And the “non-fasting blood triglyceride level” value ([1]; 3 mg/kg s.c. daily, Day 10)?
Answer: 226.3

Question: What about the body weight ([2]; 0.1 mg/kg s.c., Day 1) of the same molecule?
Answer: 100.0

Question: And the body weight ([2]; 0.1 mg/kg s.c., Day 2)?
Answer: 97.7

Question: And the body weight ([2]; 0.1 mg/kg s.c., Day 3)?
Answer: 100.0

Question: And the body weight ([2]; 0.1 mg/kg s.c., Day 4)?
Answer: 102.2

Question: What about the body weight ([2]; 0.1 mg/kg s.c., Day 5) of the same molecule?
Answer: 104.5

Question: And the body weight ([2]; 0.1 mg/kg s.c., Day 8)?
Answer: 102.2

Question: What about the body weight ([2]; 0.1 mg/kg s.c., Day 9) of the same molecule?
Answer: 102.8

Question: What about the body weight ([2]; 0.1 mg/kg s.c., Day 10) of the same molecule?
Answer: 103.3

Question: And the body weight ([2]; 0.1 mg/kg s.c., Day 11)?
Answer: 105.1

Question: What about the body weight ([2]; 0.3 mg/kg s.c., Day 1) of the same molecule?
Answer: 100.0

Question: And the body weight ([2]; 0.3 mg/kg s.c., Day 2)?
Answer: 98.3

Question: What about the body weight ([2]; 0.3 mg/kg s.c., Day 3) of the same molecule?
Answer: 98.9

Question: What about the body weight ([2]; 0.3 mg/kg s.c., Day 4) of the same molecule?
Answer: 100.6

Question: What about the body weight ([2]; 0.3 mg/kg s.c., Day 5) of the same molecule?
Answer: 101.8

Question: What about the body weight ([2]; 0.3 mg/kg s.c., Day 8) of the same molecule?
Answer: 101.2

Question: And the body weight ([2]; 0.3 mg/kg s.c., Day 9)?
Answer: 102.4

Question: And the body weight ([2]; 0.3 mg/kg s.c., Day 10)?
Answer: 102.9

Question: And the body weight ([2]; 0.3 mg/kg s.c., Day 11)?
Answer: 104.1

Question: What about the body weight ([2]; 1 mg/kg s.c., Day 1) of the same molecule?
Answer: 100.0

Question: And the body weight ([2]; 1 mg/kg s.c., Day 2)?
Answer: 97.1

Question: And the body weight ([2]; 1 mg/kg s.c., Day 3)?
Answer: 94.8

Question: And the body weight ([2]; 1 mg/kg s.c., Day 4)?
Answer: 98.2

Question: And the body weight ([2]; 1 mg/kg s.c., Day 5)?
Answer: 99.2

Question: What about the body weight ([2]; 1 mg/kg s.c., Day 8) of the same molecule?
Answer: 97.7

Question: And the body weight ([2]; 1 mg/kg s.c., Day 9)?
Answer: 97.6

Question: What about the body weight ([2]; 1 mg/kg s.c., Day 10) of the same molecule?
Answer: 97.6

Question: And the body weight ([2]; 1 mg/kg s.c., Day 11)?
Answer: 99.0

Question: And the body weight ([2]; 3 mg/kg s.c., Day 1)?
Answer: 100.0

Question: What about the body weight ([2]; 3 mg/kg s.c., Day 2) of the same molecule?
Answer: 95.6

Question: What about the body weight ([2]; 3 mg/kg s.c., Day 3) of the same molecule?
Answer: 94.6

Question: What about the body weight ([2]; 3 mg/kg s.c., Day 4) of the same molecule?
Answer: 94.6

Question: And the body weight ([2]; 3 mg/kg s.c., Day 5)?
Answer: 94.6

Question: And the body weight ([2]; 3 mg/kg s.c., Day 8)?
Answer: 92.2

Question: And the body weight ([2]; 3 mg/kg s.c., Day 9)?
Answer: 92.2

Question: And the body weight ([2]; 3 mg/kg s.c., Day 10)?
Answer: 92.7

Question: And the body weight ([2]; 3 mg/kg s.c., Day 11)?
Answer: 92.6

Question: And the food intake ([3]; 0.1 mg/kg s.c., Day 1)?
Answer: 5.17

Question: What about the food intake ([3]; 0.1 mg/kg s.c., Day 2) of the same molecule?
Answer: 5.50

Question: And the food intake ([3]; 0.1 mg/kg s.c., Day 3)?
Answer: 5.83

Question: What about the food intake ([3]; 0.1 mg/kg s.c., Day 4) of the same molecule?
Answer: 6.00

Question: What about the food intake ([3]; 0.1 mg/kg s.c., Day 5) of the same molecule?
Answer: 5.50

Question: And the food intake ([3]; 0.1 mg/kg s.c., Day 8)?
Answer: 4.50

Question: And the food intake ([3]; 0.1 mg/kg s.c., Day 9)?
Answer: 4.83

Question: And the food intake ([3]; 0.1 mg/kg s.c., Day 10)?
Answer: 5.00

Question: And the food intake ([3]; 0.3 mg/kg s.c., Day 1)?
Answer: 5.32

Question: And the food intake ([3]; 0.3 mg/kg s.c., Day 2)?
Answer: 5.67

Question: What about the food intake ([3]; 0.3 mg/kg s.c., Day 3) of the same molecule?
Answer: 5.33

Question: And the food intake ([3]; 0.3 mg/kg s.c., Day 4)?
Answer: 5.67

Question: What about the food intake ([3]; 0.3 mg/kg s.c., Day 5) of the same molecule?
Answer: 4.83

Question: What about the food intake ([3]; 0.3 mg/kg s.c., Day 8) of the same molecule?
Answer: 4.33

Question: What about the food intake ([3]; 0.3 mg/kg s.c., Day 9) of the same molecule?
Answer: 4.50

Question: And the food intake ([3]; 0.3 mg/kg s.c., Day 10)?
Answer: 4.67

Question: What about the food intake ([3]; 1 mg/kg s.c., Day 1) of the same molecule?
Answer: 5.07

Question: What about the food intake ([3]; 1 mg/kg s.c., Day 2) of the same molecule?
Answer: 5.43

Question: What about the food intake ([3]; 1 mg/kg s.c., Day 3) of the same molecule?
Answer: 4.86

Question: And the food intake ([3]; 1 mg/kg s.c., Day 4)?
Answer: 4.71

Question: And the food intake ([3]; 1 mg/kg s.c., Day 5)?
Answer: 4.43

Question: And the food intake ([3]; 1 mg/kg s.c., Day 8)?
Answer: 3.93

Question: What about the food intake ([3]; 1 mg/kg s.c., Day 9) of the same molecule?
Answer: 4.00

Question: And the food intake ([3]; 1 mg/kg s.c., Day 10)?
Answer: 4.14

Question: And the food intake ([3]; 3 mg/kg s.c., Day 1)?
Answer: 5.13

Question: What about the food intake ([3]; 3 mg/kg s.c., Day 2) of the same molecule?
Answer: 4.86

Question: What about the food intake ([3]; 3 mg/kg s.c., Day 3) of the same molecule?
Answer: 4.29

Question: And the food intake ([3]; 3 mg/kg s.c., Day 4)?
Answer: 4.29

Question: And the food intake ([3]; 3 mg/kg s.c., Day 5)?
Answer: 4.00

Question: And the food intake ([3]; 3 mg/kg s.c., Day 8)?
Answer: 3.86

Question: And the food intake ([3]; 3 mg/kg s.c., Day 9)?
Answer: 3.57

Question: What about the food intake ([3]; 3 mg/kg s.c., Day 10) of the same molecule?
Answer: 3.86
